Test results taken from patent US20230159612A1 (MEDIGENE IMMUNOTHERAPIES, published 2023).

B1: MAGE-A4 TCR-6 (fully human TCR) (TCR)
TCR alpha: GENVEQHPSTLSVQEGDSAVIKCTYSDSASNYFPWYKQELGKRPQLIIDIRSNVGEKKDQRIAVTLNKTAKHFSLHITETQPEDSAVYFCAASRGTGFQKLVFGTGTRLLVSPNIQNPDPAVYQLRDSKSSDKSVCLFTDFDSQTNVSQSKDSDVYITDKTVLDMRSMDFKSNSAVAWSNKSDFACANAFNNSIIPEDTFFPSPESSCDVKLVEKSFETDTNLNFQNLSVIGFRILLLKVAGFNLLMTLRLWSS
TCR beta: DTAVSQTPKYLVTQMGNDKSIKCEQNLGHDTMYWYKQDSKKFLKIMFSYNNKELIINETVPNRFSPKSPDKAHLNLHINSLELGDSAVYFCASSQFWDGAGDEQYFGPGTRLTVTEDLNKVFPPEVAVFEPSEAEISHTQKATLVCLATGFFPDHVELSWWVNGKEVHSGVSTDPQPLKEQPALNDSRYCLSSRLRVSATFWQNPRNHFRCQVQFYGLSENDEWTQDRAKPVTQIVSAEAWGRADCGFTSVSYQQGVLSATILYEILLGKATLYAVLVSALVLMAMVKRKD
notes: no leader limits stated
B2: MAGE-A4 TCR-5 (fully human TCR) (TCR)
TCR alpha: AQKITQTQPGMFVQEKEAVTLDCTYDTSDPSYGLFWYKQPSSGEMIFLIYQGSYDQQNATEGRYSLNFQKARKSANLVISASQLGDSAMYFCAMSGGYTGGFKTIFGAGTRLFVKANIQNPDPAVYQLRDSKSSDKSVCLFTDFDSQTNVSQSKDSDVYITDKTVLDMRSMDFKSNSAVAWSNKSDFACANAFNNSIIPEDTFFPSPESSCDVKLVEKSFETDTNLNFQNLSVIGFRILLLKVAGFNLLMTLRLWSS
TCR beta: DSGVTQTPKHLITATGQRVTLRCSPRSGDLSVYWYQQSLDQGLQFLIQYYNGEERAKGNILERFSAQQFPDLHSELNLSSLELGDSALYFCASSGGDGDEQFFGPGTRLTVLEDLKNVFPPEVAVFEPSEAEISHTQKATLVCLATGFYPDHVELSWWVNGKEVHSGVSTDPQPLKEQPALNDSRYCLSSRLRVSATFWQNPRNHFRCQVQFYGLSENDEWTQDRAKPVTQIVSAEAWGRADCGFTSESYQQGVLSATILYEILLGKATLYAVLVSALVLMAMVKRKDSRG
notes: no leader limits stated
B3: MAGE-A4 TCR-4 (fully human TCR) (TCR)
TCR alpha: AQKITQTQPGMFVQEKEAVTLDCTYDTSDQSYGLFWYKQPSSGEMIFLIYQGSYDEQNATEGRYSLNFQKARKSANLVISASQLGDSAMYFCAMSGDSAGNMLTFGGGTRLMVKPHIQNPDPAVYQLRDSKSSDKSVCLFTDFDSQTNVSQSKDSDVYITDKTVLDMRSMDFKSNSAVAWSNKSDFACANAFNNSIIPEDTFFPSPESSCDVKLVEKSFETDTNLNFQNLSVIGFRILLLKVAGFNLLMTLRLWSS
TCR beta: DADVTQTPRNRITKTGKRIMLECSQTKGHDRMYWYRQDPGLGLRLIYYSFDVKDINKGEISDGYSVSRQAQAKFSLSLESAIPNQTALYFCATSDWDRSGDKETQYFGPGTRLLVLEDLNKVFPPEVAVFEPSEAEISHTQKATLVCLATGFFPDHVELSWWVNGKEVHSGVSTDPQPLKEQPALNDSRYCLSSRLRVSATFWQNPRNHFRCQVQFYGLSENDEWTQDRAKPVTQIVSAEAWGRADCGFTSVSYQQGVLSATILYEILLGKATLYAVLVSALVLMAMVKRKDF
notes: no leader limits stated
B4: TCR-1 containing murinized Cα and Cβ regions (TCR)
TCR alpha: AQKITQTQPGMFVQEKEAVTLDCTYDTSDQSYGLFWYKQPSSGEMIFLIYQGSYDEQNATEGRYSLNFQKARKSANLVISASQLGDSAMYFCAMSGDSAGNMLTFGGGTRLMVKPHIQNPEPAVYQLKDPRSQDSTLCLFTDFDSQINVPKTMESGTFITDKTVLDMKAMDSKSNGAIAWSNQTSFTCQDIFKETNATYPSSDVPCDATLTEKSFETDMNLNFQNLSVMGLRILLLKVAGFNLLMTLRLWSS
TCR beta: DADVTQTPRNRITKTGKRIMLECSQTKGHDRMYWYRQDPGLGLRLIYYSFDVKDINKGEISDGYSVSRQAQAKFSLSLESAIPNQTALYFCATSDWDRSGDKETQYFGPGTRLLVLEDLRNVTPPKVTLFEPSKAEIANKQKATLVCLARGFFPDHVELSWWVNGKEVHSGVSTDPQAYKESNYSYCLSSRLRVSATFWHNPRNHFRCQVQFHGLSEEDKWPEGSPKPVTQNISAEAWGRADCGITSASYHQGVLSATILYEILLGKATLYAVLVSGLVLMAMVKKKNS
notes: Expressed on the surface of retrovirally transduced human CD8+ T cells; Human variable regions with murine constant regions; also called MAGE-A4-TCR
B5: TCR-3 containing murinized Cα and Cβ regions (TCR)
TCR alpha: GENVEQHPSTLSVQEGDSAVIKCTYSDSASNYFPWYKQELGKRPQLIIDIRSNVGEKKDQRIAVTLNKTAKHFSLHITETQPEDSAVYFCAASRGTGFQKLVFGTGTRLLVSPNIQNPEPAVYQLKDPRSQDSTLCLFTDFDSQINVPKTMESGTFITDKTVLDMKAMDSKSNGAIAWSNQTSFTCQDIFKETNATYPSSDVPCDATLTEKSFETDMNLNFQNLSVMGLRILLLKVAGFNLLMTLRLWSS
TCR beta: DTAVSQTPKYLVTQMGNDKSIKCEQNLGHDTMYWYKQDSKKFLKIMFSYNNKELIINETVPNRFSPKSPDKAHLNLHINSLELGDSAVYFCASSQFWDGAGDEQYFGPGTRLTVTEDLRNVTPPKVTLFEPSKAEIANKQKATLVCLARGFFPDHVELSWWVNGKEVHSGVSTDPQAYKESNYSYCLSSRLRVSATFWHNPRNHFRCQVQFHGLSEEDKWPEGSPKPVTQNISAEAWGRADCGITSASYHQGVLSATILYEILLGKATLYAVLVSGLVLMAMVKKKNS
notes: as for B4
B6: TCR-2 containing murinized Cα and Cβ regions (TCR)
TCR alpha: AQKITQTQPGMFVQEKEAVTLDCTYDTSDPSYGLFWYKQPSSGEMIFLIYQGSYDQQNATEGRYSLNFQKARKSANLVISASQLGDSAMYFCAMSGGYTGGFKTIFGAGTRLFVKANIQNPEPAVYQLKDPRSQDSTLCLFTDFDSQINVPKTMESGTFITDKTVLDMKAMDSKSNGAIAWSNQTSFTCQDIFKETNATYPSSDVPCDATLTEKSFETDMNLNFQNLSVMGLRILLLKVAGFNLLMTLRLWSS
TCR beta: DSGVTQTPKHLITATGQRVTLRCSPRSGDLSVYWYQQSLDQGLQFLIQYYNGEERAKGNILERFSAQQFPDLHSELNLSSLELGDSALYFCASSGGDGDEQFFGPGTRLTVLEDLRNVTPPKVTLFEPSKAEIANKQKATLVCLARGFFPDHVELSWWVNGKEVHSGVSTDPQAYKESNYSYCLSSRLRVSATFWHNPRNHFRCQVQFHGLSEEDKWPEGSPKPVTQNISAEAWGRADCGITSASYHQGVLSATILYEILLGKATLYAVLVSGLVLMAMVKKKNS
notes: as for B4

Biological target: T1, MAGE-A4GVY-MHC-multimer (MAGE-A4 230-239, …; immuneAware) (human)
T1 construct: Bought reagent (immuneAware); also called GVY-specific tetramer
Assay: flow cytometry, multimer staining of TCR-transduced CD3+ T cells, gated on live CD3+ cells
From the text: After expansion of these cells, they were stained with a MAGE-A4GVY-MHC-multimer and antibody against CD3 and analyzed by flow cytometry. Populations were gated on live CD3+ cells and multimer staining.
After expansion, the transduced T cells were stained with a MAGE-A4GVY-MHC-multimer (MAGE-A4²³⁰⁻²³⁹, […]; immuneAware) and antibodies against CD3. Populations were gated on live CD3⁺ cells and multimer staining. All MAGE-A4-TCR-transgenic T cell populations bound the MAGE-A4GVY-MHC-multimer very efficiently (>70%).

Row | Binder | percent of cells stained by the multimer
1 | B1 | > 70%
2 | B2 | > 70%
3 | B3 | > 70%

Biological target: T1, MAGE-A4GVY-MHC-multimer (MAGE-A4 …)
Assay: flow cytometry, multimer staining of TCR-transduced CD8+ T cells, gated on live CD8+/mCb+ cells
From the text: Transduced CD8+ T cells were enriched by FACS using the murine constant beta region as a marker for transduction. After expansion of these cells, they were stained with an MAGE-A4GVY-MHC-multimer and antibodies against CD8 and the murine constant beta region (mmCb) and analyzed by flow cytometry. Populations were gated on live CD8+/mCb+ cells and staining of multimer/CD8 is shown.
They were stained with a MAGE-A4GVY-MHC-multimer (MAGE-A4²³⁰⁻²³⁹, […]; immuneAware) and antibodies against CD8 and the murine constant beta region. All MAGE-A4-TCR-transgenic T cell populations bound the MAGE-A4GVY-MHC-multimer very efficiently (>70%).

Row | Binder | percent of cells stained by the multimer
4 | B4 | > 70%
5 | B5 | > 70%
6 | B6 | > 70%
